Laboratory results reported in PMC9009768 (PLoS Pathogens, 2022).

Target: T1, His-tagged PIAS1 (human, UniProt O75925 1-651)
T1 construct: also called His-PIAS1; purified PIAS1
Assay: pull-down
Settings: both partners purified

T1 sequence (O75925 whole entry): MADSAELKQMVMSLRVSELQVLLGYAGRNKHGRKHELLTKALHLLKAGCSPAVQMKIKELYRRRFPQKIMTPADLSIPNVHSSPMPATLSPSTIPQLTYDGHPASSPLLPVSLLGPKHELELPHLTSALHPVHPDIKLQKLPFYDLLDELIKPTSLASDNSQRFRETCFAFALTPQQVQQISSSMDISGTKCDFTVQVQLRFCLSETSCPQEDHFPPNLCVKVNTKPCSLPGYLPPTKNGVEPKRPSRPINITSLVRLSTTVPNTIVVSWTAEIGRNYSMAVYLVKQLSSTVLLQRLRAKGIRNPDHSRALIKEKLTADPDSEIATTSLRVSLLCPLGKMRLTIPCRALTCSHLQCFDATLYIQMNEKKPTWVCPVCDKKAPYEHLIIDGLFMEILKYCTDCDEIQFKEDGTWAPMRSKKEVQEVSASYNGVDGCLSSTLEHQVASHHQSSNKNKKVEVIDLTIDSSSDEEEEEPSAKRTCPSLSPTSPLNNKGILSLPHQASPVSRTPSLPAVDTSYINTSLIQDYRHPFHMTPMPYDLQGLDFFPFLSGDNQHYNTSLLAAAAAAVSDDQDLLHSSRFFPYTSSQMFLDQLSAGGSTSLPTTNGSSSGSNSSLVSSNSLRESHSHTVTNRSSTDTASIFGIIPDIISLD

B1: GST-WSNNP (natural protein)
chain: MATKGTKRSYEQMETDGERQNATEIRASVGKMIGGIGRFYIQMCTELKLSDYEGRLIQNSLTIERMVLSAFDERRNKYLEEHPSAGKDPKKTGGPIYRRVDGKWMRELILYDKEEIRRIWRQANNGDDATAGLTHMMIWHSNLNDATYQRTRALVRTGMDPRMCSLMQGSTLPRRSGAAGAAVKGVGTMVMELIRMIKRGINDRNFWRGENGRRTRIAYERMCNILKGKFQTAAQRAMVDQVRESRNPGNAEFEDLIFLARSALILRGSVAHKSCLPACVYGPAVASGYDFEREGYSLVGIDPFRLLQNSQVYSLIRPNENPAHKSQLVWMACHSAAFEDLRVSSFIRGTKVVPRGKLSTRGVQIASNENMETMESSTLELRSRYWAIRTRSGGNTNQQRASSGQISIQPTFSVQRNLPFDRPTIMAAFTGNTEGRTSDMRTEIIRLMESARPEDVSFQGRGVFELSDEKAASPIVPSFDMSNEGSYFFGDNAEEYDN
  binding result: binds
